According to patent publication US7211434B2, “Primitive neural stem cells and method for differentiation of stem cells to neural cells” (priority 2000, dated 2007):

Key:
Type in all cases: cell-based, mouse
ES cells = assay: Primary neural sphere colony formation from ES cells in serum-free low-density culture, 7 days; conditions: for primary colony formation, factor alone: ES cells at relatively low cell densities, serum-free, 7 days in vitro
Description: For passaging ES cells, cultures were disaggregated with 0.05% trypsin dissolved in Tris-saline/EDTA for 5–10 minutes, mechanically dissociated, centrifuged and resuspended in culture medium.
Passaged ES cells were washed (2 times), centrifuged and resuspended in chemically defined serum-free media (Reynolds et al., 1992; Reynolds & Weiss, 1996) composed of a 1:1 mixture of Dulbecco's modified Eagle's medium (DMEM GIBCO) and F-12 nutrient (GIBCO) including 0.6% glucose (Sigma), 2 mM glutamine (GIBCO), 3 mM sodium bicarbonate (Sigma), and 5 mM HEPFS buffer (Sigma). A defined hormone and salt mixture (Sigma) that included insulin (25 (g/ml), transferrin (100 (g/ml), progestrone (20 nM), putrescine (60 (M), and selenium chloride (30 nM) was used instead of serum. ES cells were plated at various cell densities in 24-well culture plates (Nunclon) in the presence of either LIF (1000 U/ml), LIF+FGF2 (10 ng/ml; Upstate Biotech or Sigma) and 2 (g/ml heparin (Sigma), or in the absence of any exogenous growth factors. For short term (4–24 hours) neural differentiation, ES cells were plated in identical culture conditions in 24-well culture plates (Nunclon) that were precoated with poly-L-ornithine (15 μg/ml, Gibco).
Limiting dilution analysis was performed as previously described (Bellows and Aubin, 1989; Tropepe et al., 1999). ES cells were plated in 24-well plates containing LIF (1000 U/ml). Cell numbers were adjusted to give a starting concentration of 5000 cells/ml from which serial dilutions were made. Final cell dilutions ranged from 1000 cells per well to 1 cell per well in 0.5 ml aliquots. Cultures were left undisturbed for 7 days after which time the fraction of wells not containing sphere colonies for each cell plating density was calculated and those points were plotted against the number of cells plated per well. The number of cells required to form one sphere colony, which reflected the proportion of neural stem cells in the entire population, was then determined from the point at which the regression line crossed the 0.37 level (37%). That is […], where F0 is the fraction of wells without sphere colonies and x is the mean number of cells per well. Based on a Poisson distribution of cells, F0=0.37 corresponds to the dilution at which there is one neural stem cell per well. The linear relationship observed between the cell density and the number of sphere colonies generated (regression coefficient R^2=0.99) can be accounted for by the clonal proliferation of a single rare population of cells.
Neuro2a (a murine neuroblastoma cell line) cells were seeded at 1×10^6 cells per 100 mm petri dish and transiently transfected with 10 μg of plasmid DNA by means of LipofectAMINE (Gibco) according to the manufacturer's instructions. After 6 hours, the culture media was changed to 10 ml of DMEM+10% FBS (Gibco). Twenty-four hours after transfection, culture media was changed to […] of serum-free media. Seventy-two hours after transfection, cell supernatant was collected and centrifuged to remove cellular debris. Supernatant media was aliquoted and stored at −70° C. […] Thus data from the 20% (v/v) experiments were used for the analysis. The plasmids pCS-V2 (gift from Dr. R. Moon) Hoppler et al., 1996) and pCS-cer-I (a gift from Dr. E. De Robertis) (Belo et al., 1997) were used.

[1] = test system: ES derived neural colonies; assay: RT-PCR gene expression in ES-derived neural colonies; conditions: mCer-1 enriched media versus control media; data not shown
Description: Total RNA was isolated using the RNeasy extraction kit (Qiagen) and 1 μg of total RNA was used to synthesize cDNA with oligo-d(T)12-18 primers and MuMLV reverse transcriptase (Superscript II; Boehringer-Mannheim) at 42° C. for 1 hour. The PCR mixture (20 μl) consisted of 1 μl cDNA, 16 pmol 5 ″ primer, 16 pmol 3′ primer, specific for the gene in question 0.2 mM dNTP, 2 μl PCR reaction buffer and 0.8 U of Taq polymerase (Promega). cDNA was amplified in a thermal cycler (Perkin-Elmer) For all primer pairs denaturation for 30 sec at 94° C., annealing for 30 sec and extension at 72° C. was used. The sense and antisense primers, Mg^2 concentration, annealing temperature, extension time and number of PCR cycles were used for the following genes. Emx2: sense 5′-[…]-3′ (SEQ ID. No. 1), antisense 5′ […]-3′(SEQ. ID. No. 2), 1.65 mM Mg^2+, 56° C., 40 sec, 40 cycles. HoxB1: sense 5′-CCGGACCTTCGACTGGATG-3′(SEQ. ID. No. 3). antisense 5′-GGTCAGAGGCATCTCCAGC-3′(SEQ. ID. No. 4), 1.35 mM Mg^2+, 58° C., 40 sec, 40 cycles. Otx1: sense 5′-[…]-3′(SEQ. ID. No. 5). antisense 5′-[…]-3′(SEQ. ID. No. 6), 1.65 mM Mg^2+, 58° C., 40 sec, 40 cycles. Six3: sense 5′-[…]-3′(SEQ. ID. No. 7), antisense 5′-[…]-3′(SEQ. ID. No. 8), 1.35 mM Mg^2+, 56° C., 40 sec, 40 cycles. Brechyury: sense 5′-[…]-3′(SEQ. ID. No. 9), antisense 5′-[…]-3′(SEQ. ID. No. 10), 1.65 mM Mg^2+, 56° C., 1 min. 35 cycles. […]

[2] = test system: ES-derived neural sphere colony cells; assay: Subcloning of single ES-derived sphere colonies (secondary colony formation, self-renewal); conditions: subcloned single primary colonies; factor alone
Description: Self-renewal of primary colony-formin) ES cells was assessed as previously described (Tropepe et al., 1999). Single sphere colonies were isolated, mechanically dissociated into a single cell suspension in 0.2 ml of serum-free media containing various combinations of LIF (1000 U/ml), […] (10 ng/ml), heparin (2 (g/ml), EGF (20 ng/ml; Upstate Biotech) or B27 supplement (1X) and cultured in 96-well (Nunclon) plates. Secondary sphere colonies were quantified after 7–10 days. A similar procedure was used for repeated passaging experiments. Cell viability after a 7-day culture period (sphere colony assay) or after 4–24 hours (short-term ES differentiation assay) was determined using trypan blue exclusion (1:2 dilution of 0.4% trypan blue; Gibco).

B1: Noggin: BMP protein antagonist; human recombinant Noggin protein provided by Regeneron Pharmaceuticals Inc. (protein)
chain: QHYLHIRPAPSDNLPLVDLIEHPDPIFDPKEKDLNETLLRSLLGGHYDPGFMATSPPEDRPGGGGGAAGGAEDLAELDQLLRQRPSGAMPSEIKGLEFSEGLAQGKKQRLSKKLRRKLQMWLWSQTFCPVLYAWNDLGSRFWPRYVKVGSCFSKRSCSVPEGMVCKPSKSVHLTVLRWRCQRRGGQRCGWIPIQYPIISECKCSC
increase in the number of sphere colonies generated (ES cells; Noggin 100 μg/ml, primary ES cell cultures with LIF+FGF2, 7 days): 50%
further effect on number of sphere colonies with rising Noggin concentration (ES cells; Noggin from 10 μg/ml to 100 μg/ml): no additional increase in the numbers of sphere colonies generated

B2: CNTT: another member of the cytokine family of signaling molecules to which LIF belongs (protein, UniProt P26441 1-200, looked up)
Ciliary neurotrophic factor: MAFTEHSPLTPHRRDLCSRSIWLARKIRSDLTALTESYVKHQGLNKNINLDSADGMPVASTDQWSELTEAERLQENLQAYRTFHVLLARLLEDQQVHFTPTEGDFHQAIHTLLLQVAAFAYQIEELMILLEYKIPRNEADGMPINVGDGGLFEKKLWGLKVLQELSQWTVRSIHDLRFISSHQTGIPARGSHYIANNKKM
primary colony formation, factor alone (ES cells): unable to substitute as a colony-promoting factor

B3: mCer-1: mouse Cerberus-like protein in supernatant from transiently transfected Neuro2a cells (protein)
chain: DLCVDGCQSQGSLSFPLLERGRRDLHVANHEEAEDKPDLFVAVPHLMGTSLAGEGQRQRGKMLSRLGRFWKKPETEFYPPRDVESDHVSSGMQAVTQPADGRKVERSPLQEEAKRFWHRFMFRKGPAFQGVILPIKSHEVHWETCRTVPFNQTIAHEDCQKVVVQNNLCFGKCSSIRFPGEGADAHSFCSHCSPTKFTTVHLMLNCTSPTPVVKMVMQVEECQCMVKTERGEERLLLAGSQGSFIPGLPASKTNP
increase in the numbers of primary neural stem cell colonies (ES cells; 20% (v/v) mCer-1 supernatant in 0.5 ml serum-free media+LIF, versus backbone vector supernatant): ~50%
Otx-1 expression in ES derived neural colonies [1]: express Otx-1

B4: FGF2: fibroblast growth factor family growth factor, 10 ng/ml with heparin (protein)
chain: PALPEDGGAAFPPGHFKDPKRLYCKNGGFFLRIHPDGRVDGVREKSDPHVKLQLQAEERGVVSIKGVCANRYLAMKEDGRLLASKCVTEECFFFERLESNNYNTYRSRKYSSWYVALKRTGQYKLGSKTGPGQKAILFLPMSAKS
primary colony formation, factor alone (ES cells): no cell colonies were generated
primary colony formation, factor combined with LIF versus LIF alone (ES cells; combined with LIF): non-significant trend toward facilitating LIF-dependent colony formation
secondary neural stem cell colony formation [2]: dependent upon the presence of exogenous FGF2

B5: BMP4: Human recombinant BMP4 protein provided by Genetics Institute Inc. (protein)
chain: SPKHHPQRSRKKNKNCRRHSLYVDFSDVGWNDWIVAPPGYQAFYCHGDCPFPLADHLNSTNHAIVQTLVNSVNSSIPKACCVPTELSAISMLYLDEYDKVVLKNYQEMVVEGCGCR
further effect on number of sphere colonies at higher BMP4 concentration (ES cells; 5-fold increase in BMP4 concentration, LIF and FGF2): did not further significantly attenuate the number of sphere colonies generated
decrease in the number of sphere colonies generated (ES cells; BMP4 5 ng/ml, ES cell cultures containing LIF and FGF2, 20 cells/ul, 7 days): greater than 50%
